Experimental data from patent US20230002480A1.

Columns and labels:
Experiment in all cases: cell-based or functional assay
[1] = molecular target: HIV-1 Env of pseudovirus 1006_11_C3_1601 (HIV-1)
[2] = molecular target: HIV-1 Env of pseudovirus 1012_11_TC21_3257 (HIV-1)
[3] = molecular target: HIV-1 Env of pseudovirus 1054_07_TC4_1499 (HIV-1)
[4] = molecular target: HIV-1 Env of pseudovirus 1056_10_TA11_1826 (HIV-1)
[5] = molecular target: HIV-1 Env of pseudovirus 231965.c01 (HIV-1)
[6] = molecular target: HIV-1 Env of pseudovirus 231966.c02 (HIV-1)
[7] = molecular target: HIV-1 Env of pseudovirus 249M B10 (HIV-1)
[8] = molecular target: HIV-1 Env of pseudovirus 3301.v1.c24 (HIV-1)
[9] = molecular target: HIV-1 Env of pseudovirus 6041.v3.c23 (HIV-1)
[10] = molecular target: HIV-1 Env of pseudovirus 6545.v4.c1 (HIV-1)
[11] = molecular target: HIV-1 Env of pseudovirus 6811.v7.c18 (HIV-1)
[12] = molecular target: HIV-1 Env of pseudovirus 7030102001E5(Rev-) (HIV-1)
[13] = molecular target: HIV-1 Env of pseudovirus 89-F1_2_25 (HIV-1)
[14] = molecular target: HIV-1 Env of pseudovirus AC10.0.29 (HIV-1)
[15] = molecular target: HIV-1 Env of pseudovirus BJOX028000.10.3 (HIV-1)
[16] = molecular target: HIV-1 Env of pseudovirus CNE17 (HIV-1)
[17] = molecular target: HIV-1 Env of pseudovirus CNE19 (HIV-1)
[18] = molecular target: HIV-1 Env of pseudovirus CNE20 (HIV-1)
[19] = molecular target: HIV-1 Env of pseudovirus CNE21 (HIV-1)
[20] = molecular target: HIV-1 Env of pseudovirus CNE52 (HIV-1)
[21] = molecular target: HIV-1 Env of pseudovirus Ce1086_B2 (HIV-1)
[22] = molecular target: HIV-1 Env of pseudovirus Ce1176_A3 (HIV-1)
[23] = molecular target: HIV-1 Env of pseudovirus Ce703010054_2A2 (HIV-1)
[24] = molecular target: HIV-1 Env of pseudovirus Ce704809221_1B3 (HIV-1)
[25] = molecular target: HIV-1 Env of pseudovirus Du172.17 (HIV-1)
[26] = molecular target: HIV-1 Env of pseudovirus P0402_c2_11 (HIV-1)
[27] = molecular target: HIV-1 Env of pseudovirus Q842.d12 (HIV-1)
[28] = molecular target: HIV-1 Env of pseudovirus R2184.c04 (HIV-1)
[29] = molecular target: HIV-1 Env of pseudovirus SC05_8C11_2344 (HIV-1)
[30] = molecular target: HIV-1 Env of pseudovirus T250-4 (HIV-1)
[31] = molecular target: HIV-1 Env of pseudovirus T251-18 (HIV-1)
[32] = molecular target: HIV-1 Env of pseudovirus T278-50 (HIV-1)
[33] = molecular target: HIV-1 Env of pseudovirus TRJO4551.58 (HIV-1)
[34] = molecular target: HIV-1 Env of pseudovirus X1254_c3 (HIV-1)
[35] = molecular target: HIV-1 Env of pseudovirus ZM135M.PL10a (HIV-1)
[36] = molecular target: HIV-1 Env of pseudovirus ZM233M.PB6 (HIV-1)
[37] = molecular target: HIV-1 Env of pseudovirus ZM53M.PB12 (HIV-1)

PGDM1400 (antibody)
IC50 [1]: 4.32 µg/mL
IC80 [1]: > 50 µg/mL
IC50 [2]: 0.049 µg/mL
IC80 [2]: 0.23 µg/mL
IC50 [3]: > 50 µg/mL
IC80 [3]: > 50 µg/mL
IC50 [4]: 3.26 µg/mL
IC80 [4]: 11.8 µg/mL
IC50, titer in TZM.bl cells [5]: 0.025 µg/mL
IC80, titer in TZM.bl cells [5]: 1.28 µg/mL
IC50, titer in TZM.bl cells [6]: 0.001 µg/mL
IC80, titer in TZM.bl cells [6]: 0.004 µg/mL
IC50 [7]: 0.039 µg/mL
IC80 [7]: 0.786 µg/mL
IC50, titer in TZM.bl cells [8]: 0.048 µg/mL
IC80, titer in TZM.bl cells [8]: 0.245 µg/mL
IC50, titer in TZM.bl cells [9]: 0.013 µg/mL
IC80, titer in TZM.bl cells [9]: 0.289 µg/mL
IC50, titer in TZM.bl cells [10]: 0.003 µg/mL
IC80, titer in TZM.bl cells [10]: 0.039 µg/mL
IC50, titer in TZM.bl cells [11]: > 50 µg/mL
IC80, titer in TZM.bl cells [11]: > 50 µg/mL
IC50 [12]: > 50 µg/mL
IC80 [12]: > 50 µg/mL
IC50, titer in TZM.bl cells [13]: 0.001 µg/mL
IC80, titer in TZM.bl cells [13]: 0.005 µg/mL
IC50 [14]: 0.105 µg/mL
IC80 [14]: 0.869 µg/mL
IC50, titer in TZM.bl cells [15]: 0.072 µg/mL
IC80, titer in TZM.bl cells [15]: 0.963 µg/mL
IC50 [16]: 0.007 µg/mL
IC80 [16]: 0.021 µg/mL
IC50 [17]: 0.001 µg/mL
IC80 [17]: 0.007 µg/mL
IC50 [18]: 0.004 µg/mL
IC80 [18]: 0.014 µg/mL
IC50 [19]: < 0.001 µg/mL
IC80 [19]: 0.002 µg/mL
IC50 [20]: 1.15 µg/mL
IC80 [20]: 9.97 µg/mL
IC50 [21]: > 50 µg/mL
IC80 [21]: > 50 µg/mL
IC50 [22]: 0.587 µg/mL
IC80 [22]: 11.6 µg/mL
IC50 [23]: 0.015 µg/mL
IC80 [23]: 0.26 µg/mL
IC50 [24]: 0.28 µg/mL
IC80 [24]: 1.1 µg/mL
IC50 [25]: 5.18 µg/mL
IC80 [25]: 22 µg/mL
IC50, titer in TZM.bl cells [26]: 0.01 µg/mL
IC80, titer in TZM.bl cells [26]: 0.033 µg/mL
IC50 [27]: < 0.001 µg/mL
IC80 [27]: 0.002 µg/mL
IC50, titer in TZM.bl cells [28]: 0.003 µg/mL
IC80, titer in TZM.bl cells [28]: 0.012 µg/mL
IC50 [29]: 1.26 µg/mL
IC80 [29]: 3.59 µg/mL
IC50 [30]: < 0.001 µg/mL
IC80 [30]: < 0.001 µg/mL
IC50, titer in TZM.bl cells [31]: 8.62 µg/mL
IC80, titer in TZM.bl cells [31]: 43.1 µg/mL
IC50, titer in TZM.bl cells [32]: 0.574 µg/mL
IC80, titer in TZM.bl cells [32]: 4.94 µg/mL
IC50 [33]: > 50 µg/mL
IC80 [33]: > 50 µg/mL
IC50, titer in TZM.bl cells [34]: > 50 µg/mL
IC80, titer in TZM.bl cells [34]: > 50 µg/mL
IC50 [35]: > 50 µg/mL
IC80 [35]: > 50 µg/mL
IC50 [36]: < 0.001 µg/mL
IC80 [36]: 0.001 µg/mL
IC50 [37]: 0.002 µg/mL
IC80 [37]: 0.011 µg/mL
